The target in assay [1] is recombinant human FLT3 protein (human) (UniProt P36888). As to the kind of experiment: ELISA on recombinant human FLT3, normalized to BSA control. In general terms: ELISA stands for enzyme-linked immunosorbent assay.
The target of assay [2] is T1, FLT3 as expressed on FLT3 positive human leukemia and lymphoma cell lines (e.g. MOLM-13) (human) (UniProt P36888).
T1 sequence (looked up): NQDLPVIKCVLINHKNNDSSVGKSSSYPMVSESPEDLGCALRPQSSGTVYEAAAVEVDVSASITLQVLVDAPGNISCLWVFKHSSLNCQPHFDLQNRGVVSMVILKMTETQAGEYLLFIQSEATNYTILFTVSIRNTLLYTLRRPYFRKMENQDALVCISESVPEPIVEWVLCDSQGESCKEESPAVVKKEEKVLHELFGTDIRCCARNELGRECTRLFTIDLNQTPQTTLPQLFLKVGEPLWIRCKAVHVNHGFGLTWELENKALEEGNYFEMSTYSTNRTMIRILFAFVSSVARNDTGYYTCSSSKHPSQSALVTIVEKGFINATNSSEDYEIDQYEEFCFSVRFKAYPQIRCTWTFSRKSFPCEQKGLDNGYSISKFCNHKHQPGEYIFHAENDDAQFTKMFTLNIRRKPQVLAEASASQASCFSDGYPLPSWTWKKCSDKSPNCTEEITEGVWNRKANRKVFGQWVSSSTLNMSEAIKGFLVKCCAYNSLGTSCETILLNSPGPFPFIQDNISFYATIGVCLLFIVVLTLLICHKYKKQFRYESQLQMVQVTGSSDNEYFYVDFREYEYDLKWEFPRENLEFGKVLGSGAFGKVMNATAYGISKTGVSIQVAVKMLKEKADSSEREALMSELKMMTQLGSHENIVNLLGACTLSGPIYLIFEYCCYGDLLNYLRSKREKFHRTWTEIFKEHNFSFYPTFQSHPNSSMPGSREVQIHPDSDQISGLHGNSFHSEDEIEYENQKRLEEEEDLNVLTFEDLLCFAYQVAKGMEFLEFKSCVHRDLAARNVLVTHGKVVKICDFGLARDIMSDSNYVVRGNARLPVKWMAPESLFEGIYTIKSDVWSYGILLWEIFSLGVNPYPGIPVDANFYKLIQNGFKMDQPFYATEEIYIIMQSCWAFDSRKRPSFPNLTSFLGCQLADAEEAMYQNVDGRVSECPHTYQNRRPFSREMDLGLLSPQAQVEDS
As to the kind of experiment: cell-based or functional assay.

B1: 19H5 chimeric anti-FLT3 monoclonal antibody (antibody, V domains shown)
VH: MVQPSQTLSLTCTVSGFSLTSYNVNWVRQPPGKGLEWIGAMWRGGGTDYNPALKSRLSISRDTSKSQVFLKMNRLQTEDTAIYFCTRGFGDYWGQGVMVTVSS
VL: DVQMTQSPSSMSASLGDRVTFTCQASQDIGNNLIYFQQKPGKSPRRMICCATNLAHGVPSRFSGSRSGSDYSLTLVSLESEDVADYHCLQYEHYPRTFGGGTKLELKR
The Kd is a measure of binding affinity in units of concentration. With B1, the equilibrium dissociation constant (Kd) in assay [1] turned out to be 0.134 µg/mL.

B2: deglycosylated 20D9-ADC (antibody, V domains shown)
VH: DVMLVESGGGLVQPGRSLKLSCVASGFTFNNYWMTWIRQAPGKGLEWIASITKTGGGTYYPDSVKGRFTISRDNAKSTLYLQMNSLRSEDTATYYCTTLQQLGVMDAWGQGASVTVSS
VL: DVQMTQSPSVLSASVGDRITLNCKASQNINKELNWYQQKLGEAPKLLIYNTNNLQTGIPSRFSGSGSGTDYTLTISSLQPEDVATYFCFQHKSWPLTFGSGTKLEIKR
For B2, in assay [2], the IC50 of cytotoxicity in MOLM-13 cells, 96 h, resazurin was found to be 0.474 µg/mL.
